The results in this text go back to patent US20200392244A1 (CRESCENDO BIOLOGICS, published 2020).

Assay [1] deals with T1, cynomolgus PSMA on CHO cells (cynomolgus, UniProt A0A2K5VNZ0 1-750). The experiment in a line: cell-based or functional assay.
Assay [2] addresses T2, recombinant human PSMA (R&D, cat. no. 4234-ZN) (human, UniProt Q04609 44-750).
T2 construct: Bought protein; also called rhPSMA; Recombinant PMSA
Nature of the assay: HTRF binding assay with 3 nM biotinylated PSMA; VH 7 days in cynomolgus serum at 37 C. (In general: Time-resolved FRET reads energy transfer from a long-lived donor to a nearby acceptor.)

The target in assay [3] is T3, human PSMA on cells (CHO human PSMA, DU145 PSMA, LNCaP) (human, UniProt Q04609 1-750). The experiment in a line: cell-based or functional assay.
Assay [4] addresses T1, cynomolgus PSMA on CHO cells. Nature of the assay: cell-based or functional assay. This is another data set of the same source.
Assay [5] has as its target T3, human PSMA on cells (CHO human PSMA, …). Nature of the assay: FMAT Mirrorball direct cell binding of purified His-tagged VH on DU145 cells expressing PSMA [panel Du145 PSMA].
The target is the same in assay [6]. Nature of the assay: FMAT Mirrorball direct cell binding of purified His-tagged VH on CHO cells expressing human PSMA [upper left panel huPSMA CHO].
The target is the same in assay [7]. The experiment in a line: FMAT Mirrorball direct cell binding of purified His-tagged VH on LNCaP cells [panel LNCap].
Assay [8] has as its target T1, cynomolgus PSMA on CHO cells. The experiment in a line: FMAT screen, Cyno PSMA CHO cells.

T3 sequence (Q04609 whole entry): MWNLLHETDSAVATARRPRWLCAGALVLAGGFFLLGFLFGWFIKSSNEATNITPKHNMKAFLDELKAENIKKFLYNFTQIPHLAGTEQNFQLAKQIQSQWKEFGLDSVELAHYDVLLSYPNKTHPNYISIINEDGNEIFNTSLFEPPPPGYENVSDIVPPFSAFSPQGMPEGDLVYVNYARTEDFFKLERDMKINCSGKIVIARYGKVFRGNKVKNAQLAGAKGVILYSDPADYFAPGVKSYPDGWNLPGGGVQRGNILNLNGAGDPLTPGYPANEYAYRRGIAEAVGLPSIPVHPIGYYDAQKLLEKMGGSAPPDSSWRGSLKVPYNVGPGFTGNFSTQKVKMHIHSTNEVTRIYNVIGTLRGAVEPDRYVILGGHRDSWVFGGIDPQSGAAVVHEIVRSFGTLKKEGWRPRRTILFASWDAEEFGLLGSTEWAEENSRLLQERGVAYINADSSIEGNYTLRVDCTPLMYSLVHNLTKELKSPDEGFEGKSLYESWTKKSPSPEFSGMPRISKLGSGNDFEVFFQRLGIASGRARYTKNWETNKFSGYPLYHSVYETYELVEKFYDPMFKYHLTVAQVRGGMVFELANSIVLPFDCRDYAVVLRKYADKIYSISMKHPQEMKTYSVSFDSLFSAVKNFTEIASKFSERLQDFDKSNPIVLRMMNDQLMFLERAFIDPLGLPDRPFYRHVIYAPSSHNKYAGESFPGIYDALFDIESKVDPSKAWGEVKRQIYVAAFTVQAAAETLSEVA
T2 sequence (Q04609 44-750 limits assumed): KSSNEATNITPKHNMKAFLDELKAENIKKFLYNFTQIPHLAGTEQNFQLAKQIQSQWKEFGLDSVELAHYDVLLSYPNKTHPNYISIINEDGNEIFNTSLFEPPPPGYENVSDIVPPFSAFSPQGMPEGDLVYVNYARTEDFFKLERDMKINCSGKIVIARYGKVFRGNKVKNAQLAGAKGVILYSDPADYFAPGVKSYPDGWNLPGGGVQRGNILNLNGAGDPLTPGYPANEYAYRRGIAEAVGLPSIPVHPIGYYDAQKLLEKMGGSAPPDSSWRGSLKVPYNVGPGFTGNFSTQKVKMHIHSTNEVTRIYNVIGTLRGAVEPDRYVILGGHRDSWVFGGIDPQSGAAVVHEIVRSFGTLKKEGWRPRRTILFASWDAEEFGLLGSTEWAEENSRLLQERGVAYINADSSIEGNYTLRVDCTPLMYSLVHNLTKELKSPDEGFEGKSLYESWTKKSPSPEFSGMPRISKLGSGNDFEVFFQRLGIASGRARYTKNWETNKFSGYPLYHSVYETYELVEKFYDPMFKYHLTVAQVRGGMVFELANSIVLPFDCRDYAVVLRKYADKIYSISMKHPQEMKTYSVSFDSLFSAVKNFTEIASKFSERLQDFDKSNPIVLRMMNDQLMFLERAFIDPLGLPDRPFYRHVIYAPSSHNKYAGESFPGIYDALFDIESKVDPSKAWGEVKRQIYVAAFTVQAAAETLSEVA

B1: 3.2 (VHH)
VHH: EVQLVESGGGVVQPGRSLRLSCAASGFPLISYGMNWVRQAPGKGLDWVAFISYDGSNKYYADSVKGRFTISKDNSKNTLYLQMNSLRAEDTAVYYCAKDRIVGARVPDAFDIWGQGTMVTVSS
B1: in assay [1], the “EC50 (read off the curve), pHrodo Green internalisation” value is about 1e-09 M.

B2: single VH domain antibody 3.1 (VHH)
VHH: EVQLVESGGGVVQPGRSLRLSCAASGFPLISYGMHWVRQAPGKGLEWVAFMTYDGSNRYYADSVKGRFTISRDNSKNTLYLQMNSLRDEDTALYYCARDRIVGGRVPDAFDIWGQGTMVTVSS
notes: human single VH domain; C-terminal His(-myc) tag not included; also called VH3.1; family 3 parent
By EC50 (read off the curve) is commonly meant the midpoint of the concentration-response curve. Turning to B2, in assay [2], the “EC50 (read off the curve)” value was about 1 nM.

B3: single VH domain antibody 2.1 (VHH)
VHH: EVQLVESGGGVVQPGRSLRLSCAASGFSFSGYGMHWVRQAPGKGLEWVAYISYDGSNKYYADSVKGRFTISRDNSKNTLYLQMNSLRAEDTAVYYCAKDPAWGLRLGESSSYDFDIWGQGTMVTVSS
Take B3: the “IC50 (read off the curve), His-ZAP killing” value was about 0.04 nM in assay [3] and about 0.1 nM in assay [4].

B4: single VH domain antibody 2.12 (VHH)
VHH: EVQLVESGGGVVQPGRSLRLSCAASGFSFSGYGMHWVRQAPGKGLEWVAYISYDKSNKYYADKVKGRFTISRDNSKNTLYLQMNSLRAEDTAVYYCAKDPAWGLRLGESSSYDFDIWGQGTMVTVSS
notes: variant of 2.1; human single VH domain; C-terminal His(-myc) tag not included
For B4, the “EC50 (read off the curve)” value in assay [5] was about 0.2 nM; in assay [6], about 0.1 nM; in assay [7], about 0.03 nM.

B5: single VH domain antibody 2.13 (VHH)
VHH: EVQLVESGGGVVQPGRSLRLSCAASGFSFSGYGLHWVRQAPGKGLEWVAYISYDASNKYYADNVKGRFTISRDNSKNTLYLQMNSLRAEDTAVYYCAKDPAWGLRLGESSSYDFDIWGQGTMVTVSS
notes: as for B4
On to B5, for which the “EC50 (read off the curve)” value is about 0.2 nM in assay [5] and about 0.1 nM in assay [6].

B6: single VH domain antibody 13.1 (VHH)
VHH: EVQLVESGGGSVQPGGSLRLSCAASGFTFSDYWMTWVRQVPGKGLEWVANIKQDGSEKYYVDSVKGRFTISRDNAKNSLYLQMNSLRAEDTAVYYCARDRGGAVALYHNGMDMGGQGTTVTVSS
notes: human single VH domain; C-terminal His(-myc) tag not included; also called family 13
For the molecule B6, the binding result in assay [8] is “no binding”.

B7: single VH domain antibody 5.1 (VHH)
VHH: QVQLVESGGGVVQPGRSLRLSCAASGFTFNNYGMHWVRQAPGKGLEWVAIISYDGNTKYYTDSVKGRFTISRDNSKNTLYLQMNSLRVEDTAVYYCAKGLWPSDVWGQGTTVTVSS
For the molecule B7, in assay [1], the “EC50 (read off the curve), pHrodo Green internalisation” value was about 2e-09 M.
